Source: paper PMC1289080

B1: sR47 mut C/D and C'/D' (structured_RNA)
RNA: GAUGAAGAUUCUGAGCUCGGCAGGUCCUUCGGAGUUCUGAGGAUCUUGAGUGCUUCUUCACCUU

These binders were tested against T1, L7Ae (Pyrococcus abyssi, UniProt P62008 1-123) (assay: EMSA).

Binding result, no binding:
GGGACUGAGGGUGAUGACCC (structured_RNA) [sR6 2-nt spacer GG]
GGGACUGACCAGUGAUGACCC (structured_RNA) [sR6 CCA spacer]

Target: T1, L7Ae
Assay: EMSA
Remark: another data set of the same source

Binding result, no binding:
GGGACUGACCCGUGAUGACCC (structured_RNA) [sR6 LC]
B1
GGGACUUCGCAGUUCUGACCC (structured_RNA) [sR6 mut C'/D']
GGGACUGAGCAUUGAUGACCC (structured_RNA) [sR6 L2]
